Reference: PMC1278935, “Different Catalytic Mechanisms in Mammalian Selenocysteine- and Cysteine-Containing Methionine-R-Sulfoxide Reductases” (PLoS Biology, 2005)

System: T1, CN(C)c1ccc(N=Nc2ccc(S(=O)(=O)N[C@@H](CC[S@@+](C)[O-])C(=O)O)cc2)cc1
T1 construct: full-length mouse MsrB2, C-terminal His tag (LEHHHHHH), E. coli BL21(DE3), monomer
Experiment: HPLC of dabsyl-Met, Lineweaver-Burk
Assay type: biochemical, Mus musculus
Conditions: 20 mM DTT, 50 mM sodium phosphate pH 7.5, 50 mM NaCl, 37 °C, from E. coli
Text: HPLC of dabsyl-Met, Lineweaver-Burk on MsrB2

Chain of MsrB2 (Mus musculus; H119G) (chain, as listed by the source H119G): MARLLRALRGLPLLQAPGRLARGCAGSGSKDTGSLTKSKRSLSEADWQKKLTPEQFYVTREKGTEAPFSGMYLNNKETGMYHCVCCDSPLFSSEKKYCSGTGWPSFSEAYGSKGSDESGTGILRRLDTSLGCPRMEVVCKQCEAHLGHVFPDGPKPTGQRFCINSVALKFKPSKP
Chain of MsrB2 (Mus musculus; V149E) (chain, as listed by the source V149E): as the sequence (chain, as listed by the source H119G) above, with G119H, V149E counted along it
Chain of MsrB2 (Mus musculus) (chain, as listed by the source): as the sequence (chain, as listed by the source H119G) above, with G119H counted along it

Row | Substance | Km [µM] | kcat [s⁻¹] | Km (MsrB1 numbering) [µM] | kcat (MsrB1 numbering) [s⁻¹]
1 | MsrB2 (Mus musculus) | 310 ± 100 | 0.458 ± 0.0633 |  | 
2 | MsrB2 (Mus musculus; H119G) |  |  | 340 ± 60 | 0.0083 ± 0.0017
3 | MsrB2 (Mus musculus; V149E) |  |  | 140 ± 40 | 0.0933 ± 0.012
